Patent US20030036642, “Platelet derived growth factor (PDGF) nucleic acid ligand complexes” (published 2003)
Where a chain is given by its changes, count along the chain named.

B1: 1297 (ssDNA)
DNA: CAGGCUCGGCACGAGAGCAUCCCAGATCCUG
modifications: 2'-F U6,U20,C21,C28,C29; 2'-OMe C7,G8,G9,C10,A11,C22,C23,A24,U30,G31; 3'-3' inverted T at nt 32
B2: 41t (ssDNA)
DNA: TACTCAGGGCACTGCAAGCAATTGTGGTCCCAATGGGCTGAGTAT
modifications: 3'-3' inverted T at nt 45
B3: 1295 (ssDNA)
DNA: CAGGCUACGGCACGTAGAGCAUCACCATGATCCUG
modifications: 2'-F U6,U22,C23,C32,C33; 2'-OMe C8,G9,G10,C11,A12,A24,C25,C26,A27,U34,G35; 3'-3' inverted T at nt 36
B4: 1369 (ssDNA)
DNA: B3 DNA
modifications: 2'-F U6,U22,C23,C32,C33; 2'-OMe C8,G9,G10,C11,A12,G17,G19,A24,C25,C26,A27,U34,G35; 3'-3' inverted T at nt 36
B5: 1306 (ssDNA)
DNA: B3 DNA
modifications: 2'-OMe C5,U6,C8,G9,G10,C11,A12,G19,U22,C23,A24,C25,C26,A27,C32,C33,U34,G35; 3'-3' inverted T at nt 36
B6: 1304 (ssDNA)
DNA: B3 DNA
modifications: 2'-OMe C5,U6,A7,C8,G9,G10,C11,A12,U22,C23,A24,C25,C26,A27,C32,C33,U34,G35; 3'-3' inverted T at nt 36
B7: 1374 (ssDNA)
DNA: B3 DNA
modifications: 2'-F U6,U22,C23,C32,C33; 2'-OMe A7,C8,G9,G10,C11,A12,G17,G19,A24,C25,C26,A27,U34,G35; 3'-3' inverted T at nt 36
B8: 1327 (ssDNA)
DNA: B3 DNA
modifications: 2'-F U6,U22,C23,C32,C33; 2'-OMe C8,G9,G10,C11,A12,G19,A24,C25,C26,A27,U34,G35; 3'-3' inverted T at nt 36
B9: 1328 (ssDNA)
DNA: B3 DNA
modifications: 2'-F U6,U22,C23,C32,C33; 2'-OMe C8,G9,G10,C11,A12,G19,C20,A24,C25,C26,A27,U34,G35; 3'-3' inverted T at nt 36
B10: 1329 (ssDNA)
DNA: B3 DNA
modifications: 2'-F U6,U22,C23,C32,C33; 2'-OMe C8,G9,G10,C11,A12,G17,G19,C20,A24,C25,C26,A27,U34,G35; 3'-3' inverted T at nt 36
B11: 1303 (ssDNA)
DNA: B3 DNA
modifications: 2'-F U6; 2'-OMe C8,G9,G10,C11,A12,U22,C23,A24,C25,C26,A27,C32,C33,U34,G35; 3'-3' inverted T at nt 36
B12: 1305 (ssDNA)
DNA: B3 DNA
modifications: 2'-OMe C5,U6,C8,G9,G10,C11,A12,A18,U22,C23,A24,C25,C26,A27,C32,C33,U34,G35; 3'-3' inverted T at nt 36
B13: 36ta (ssDNA)
DNA: CAGGCTACGGCACGTAGAGCATCACCATGATCCTGT
modifications: 3'-3' inverted T at nt 36
B14: 1074 (ssDNA)
DNA: CACAGGCTACGGCACGUAGAGCATCACCATGATCCTGTG
modifications: 2'-OMe C10,G11,G12,C13,A14,C15,G16,U17; 3'-3' inverted T at nt 40
B15: 1075 (ssDNA)
DNA: B14 DNA with U17T, T30U
modifications: 2'-OMe A26,C27,C28,A29,U30; 3'-3' inverted T at nt 40
B16: 1159 (ssDNA)
DNA: B14 DNA with U17T
modifications: 2'-F U24; 3'-3' inverted T at nt 40
B17: 1265 (ssDNA)
DNA: B14 DNA with U17T, T36U, T38U
modifications: 2'-OMe C10,G11,G12,C13,A14,C25,A26,C27,C28,A29,U36,G37,U38,G39; 2'-F C34; 3'-3' inverted T at nt 40
B18: 1158 (ssDNA)
DNA: B14 DNA with U17T
modifications: 2'-F U33; 3'-3' inverted T at nt 40
B19: 1148 (ssDNA)
DNA: B14 DNA with T8U, U17T
modifications: 2'-OMe A4,G5,G6,C7,U8,A9; 3'-3' inverted T at nt 40
B20: 1267 (ssDNA)
DNA: B14 DNA with U17T, T36U, T38U
modifications: 2'-OMe C10,G11,G12,C13,A14,C25,A26,C27,C28,A29,U36,G37,U38,G39; 2'-F C34,C35; 3'-3' inverted T at nt 40
B21: 1166 (ssDNA)
DNA: B14 DNA with U17T
modifications: 2'-F U17; 3'-3' inverted T at nt 40
B22: EV5 (ssDNA)
DNA: B14 DNA with U17T, T36U, T38U
modifications: 2'-OMe U36,G37,U38,G39; 3'-3' inverted T at nt 40
B23: 1142 (ssDNA)
DNA: B14 DNA with T24U
modifications: 2'-OMe U17,A23,U24; 3'-3' inverted T at nt 40
B24: 1257 (ssDNA)
DNA: B14 DNA with U17T, T38U
modifications: 2'-OMe C10,G11,G12,C13,A14,A26,C27,C28,A29,G37,U38,G39; 2'-F C34; 3'-3' inverted T at nt 40
B25: EV2 (ssDNA)
DNA: B14 DNA
modifications: 2'-OMe G12,C13,A14,C15,G16,U17; 3'-3' inverted T at nt 40
B26: 1269 (ssDNA)
DNA: B14 DNA with T8U, U17T, T36U, T38U
modifications: 2'-F U8,C34; 2'-OMe C10,G11,G12,C13,A14,C25,A26,C27,C28,A29,U36,G37,U38,G39; 3'-3' inverted T at nt 40
B27: 1164 (ssDNA)
DNA: B14 DNA with U17T
modifications: 2'-F U8; 3'-3' inverted T at nt 40
B28: 1144 (ssDNA)
DNA: B14 DNA with U17T, T33U, T36U
modifications: 2'-OMe G31,A32,U33,C34,C35,U36; 3'-3' inverted T at nt 40
B29: 1163 (ssDNA)
DNA: B14 DNA with U17T
modifications: 2'-F U30; 3'-3' inverted T at nt 40
B30: 1076 (ssDNA)
DNA: B14 DNA with T30U
modifications: 2'-OMe C1,A2,C3,C10,G11,G12,C13,A14,C15,G16,U17,A26,C27,C28,A29,U30; 3'-3' inverted T at nt 40
B31: 1266 (ssDNA)
DNA: CACAGGCUACGGCACGTAGAGCAUCACCATGATCCUGUG
modifications: 2'-F U8,U24,C25,C34,C35; 2'-OMe C10,G11,G12,C13,A14,A26,C27,C28,A29,U36,G37,U38,G39; 3'-3' inverted T at nt 40
B32: 1145 (ssDNA)
DNA: CACAGGCTACGGCACGTAGAGCATCACCATGATCCTGTGT
modifications: 2'-OMe C25,A26,C27,C28,A29; 3'-3' inverted T at nt 40
B33: 1161 (ssDNA)
DNA: B32 DNA
modifications: 2'-F C25; 3'-3' inverted T at nt 40
B34: 1160 (ssDNA)
DNA: B32 DNA
modifications: 2'-F C22; 3'-3' inverted T at nt 40
B35: EV1 (ssDNA)
DNA: B32 DNA
modifications: 2'-OMe A20,G21,C22; 3'-3' inverted T at nt 40
B36: 1162 (ssDNA)
DNA: B32 DNA
modifications: 2'-F C34; 3'-3' inverted T at nt 40
B37: 36t (ssDNA)
DNA: B32 DNA
modifications: 3'-3' inverted T at nt 40
B38: EV3 (ssDNA)
DNA: B32 DNA
modifications: 2'-OMe C10,G11,G12,C13,A14; 3'-3' inverted T at nt 40
B39: EV4 (ssDNA)
DNA: B32 DNA
modifications: 2'-OMe C1,A2,C3,A4; 3'-3' inverted T at nt 40
B40: 1149 (ssDNA)
DNA: B32 DNA
modifications: 2'-OMe G19,A20,G21,C22; 3'-3' inverted T at nt 40
B41: 1165 (ssDNA)
DNA: B32 DNA
modifications: 2'-F C35; 3'-3' inverted T at nt 40
B42: 1157 (ssDNA)
DNA: B32 DNA
modifications: 2'-F C7; 3'-3' inverted T at nt 40
B43: 20t (ssDNA)
DNA: TGGGAGGGCGCGTTCTTCGTGGTTACTTTTAGTCCCGT
modifications: 3'-3' inverted T at nt 38
B44: 1296 (ssDNA)
DNA: CAGGCUCGGCACGAGAGCAUCACCATGATCCUG
modifications: 2'-F U6,U20,C21,C30,C31; 2'-OMe C7,G8,G9,C10,A11,A22,C23,C24,A25,U32,G33; 3'-3' inverted T at nt 34

Experiments:
[1] = molecular target: PDGF-AB (A-chain/B-chain heterodimer) (Homo sapiens, UniProt P04085;P01127 P04085:87-211,P01127:82-190); test: filter; conditions: tags: R&D Systems, expressed in E. coli, carrier-free
Chain of PDGF-AB (A-chain/B-chain heterodimer) (P01127 82-190, chain 2 of 2, other chains not shown): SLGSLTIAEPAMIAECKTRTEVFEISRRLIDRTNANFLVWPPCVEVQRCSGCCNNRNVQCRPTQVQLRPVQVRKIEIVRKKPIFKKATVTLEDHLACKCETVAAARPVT
Experimental: (§1) Determination of the apparent equilibrium dissociation constants and the dissociation rate constants. The binding of ssDNA ligands at low concentrations to varying concentrations of PDGF was determined by the nitrocellulose filter binding method as described (Green et al. (1995) Chemistry and Biology 2:683-695). […] All ssDNA ligands were heated at 90° C. in binding buffer at high dilution (≈1 nM) for 2 min and cooled on ice prior to further dilution into the protein solution. The binding mixtures were typically incubated for 15 min at 37° C. before partitioning on nitrocellulose filters.

[2] = molecular target: T1, PDGF-BB (mature B-chain homodimer) (Homo sapiens, UniProt P01127 P01127:82-190); test: inhibition; 125I-PDGF-BB binding to alpha-receptor on PAE cells, 4 C; conditions: tags: R&D Systems, expressed in E. coli, carrier-free; chain copies: 2 B-chains (stated as BB isoform); three-way helix junction
T1 sequence (P01127 82-190, one chain of several): as the sequence (P01127 82-190, chain 2 of 2, other chains not shown) above
Experimental: Receptor Binding Assay. The binding of ′ ²⁵I-PDGF-AA and ¹²⁵I-PDGF-BB to porcine aortic endothelial (PAE) cells transfected with PDGF α- or β-receptors were performed as described (Heldin et al., (1988) EMBO J. 7:1387-1394). Different concentrations of DNA ligands were added to the cell culture (1.5 cm²) in 0.2 ml of phosphate buffered saline supplemented with 1 mg bovine serum albumin per ml together with ¹²⁵I-PDGF-AA (2 ng, 100,000 cpm) or ¹²⁵I-PDGF-BB (2 ng, 100,000 cpm). After incubation at 4° C. for 90 min, the cell cultures were washed and cell associated radioactivity determined in a g-counter (Heldin et al., (1988) EMBO J. 7:1387-1394).

[3] = molecular target: T1, PDGF-BB (mature B-chain homodimer); test: filter; printed as 0.159 ± 13 pM, unit evidently nM ± pM; conditions: tags: R&D Systems, expressed in E. coli, carrier-free; chain copies: 2 B-chains (stated as BB isoform)
Experimental: as §1

Row | Binder | binding signal [1] [Kd ligand/Kd 36t] | also measured
1 | B1 | 2.9 | –
2 | B2 | – | IC50 [2]: ~1 nM
3 | B3 | 0.9 | –
4 | B4 | 0.37 | –
5 | B5 | 4.4 | –
6 | B6 | 607 | –
7 | B7 | 1.5 | –
8 | B8 | 0.63 | –
9 | B9 | 2.2 | –
10 | B10 | 0.72 | –
11 | B11 | 5.8 | –
12 | B12 | 196 | –
13 | B13 | – | Kd [3]: 0.159 nM
14 | B14 | 3.1 | –
15 | B15 | 10 | –
16 | B16 | 0.37 | –
17 | B17 | 1.4 | –
18 | B18 | 2.4 | –
19 | B19 | 281 | –
20 | B20 | 4.2 | –
21 | B21 | 0.76 | –
22 | B22 | 2.3 | –

Row | Binder | binding signal [1] [Kd ligand/Kd 36t] | also measured
23 | B23 | 12.9 | –
24 | B24 | 1.3 | –
25 | B25 | 5.3 | –
26 | B26 | 0.87 | –
27 | B27 | 0.45 | –
28 | B28 | 994 | –
29 | B29 | 1.3 | –
30 | B30 | 440 | –
31 | B31 | 1 | –
32 | B32 | 0.27 | –
33 | B33 | 0.22 | –
34 | B34 | 1.4 | –
35 | B35 | 35.1 | –
36 | B36 | 0.52 | –
37 | B37 | – | IC50 [2]: ~1 nM
38 | B38 | 1.5 | –
39 | B39 | 4.5 | –
40 | B40 | 2.9 | –
41 | B41 | 0.61 | –
42 | B42 | 1 | –
43 | B43 | – | IC50 [2]: ~1 nM
44 | B44 | 2.1 | –
